The supplement of paper PMC9170038

System: K4 kissing-loop RNA reporter
Experiment: apparent KD of K4 kissing-loop reporter; higher = weaker reporter binding
Settings: Eterna round: R107
Method: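 RNA-MaP round R107: designed RNA switches with theophylline, tryptophan, arginine or FMN aptamers are transcribed on-chip within common flanks. They are titrated with a labelled K4 kissing-loop RNA reporter in RNA-MaP buffer (100 mM Tris pH 7.5, 80 mM KCl, 4 mM MgCl2), without ligand or with the indicated ligand. Median apparent KD per design.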

[1] = input ligand: theophylline 20 uM
[2] = input ligand: tryptophan 2.4 mM
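Also: bound reporter read as fluorescence of individual clusters on recovered sequencing chips by microscopy, with normalized cluster intensities fitted with a binding model.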

Sequence | apparent KD of K4 kissing-loop reporter (input ligand: FMN 200 uM) [nM] | apparent KD of K4 kissing-loop reporter (input ligand: arginine 13.2 mM) [nM] | apparent KD of K4 kissing-loop reporter (input ligand: none) [nM] | apparent KD of K4 kissing-loop reporter [1] [nM] | apparent KD of K4 kissing-loop reporter [2] [nM]
GCCGUAGAUUGAAGGAGCGGUGAAUGCAGGUGAGUCCUUUAGAUGUUUAGUGAUGUUAAACACCAGGUAGGUCGCAAUCUACGGC | 235 | 178 | 203 | 200 | 192
GCCUACGUAGCAGGAUAUAGGUAAGUGAGUGAUGUUCAAGAGUUCUGGAGUGAUGUUCCAAUCUGACUAGAAGGGCUACGUAGGC | 58.4 | 45.2 | 79.3 | 57.3 | 54.1
GCGCGCGGCGGAGGAUAUAGCAGGUGAUCCAAGAAAGUGAGUGAUGUUUAUGGAGAUGAUGAUAUGUUAGAAGGCCGCCGCGCGC [abcdefghijklmnopqrstu] | 803 | 448 | 626 | 847 | 474
GCGCGGCUCAGUGAUGUUGAGCCUCGGAGACGAGGACCGGUACGGCCGCCACUCGUCCGCGCAGCUGAGGCAAAAGCCUCGGCAA [Omei KL Tryp A SS B v3] | 201 | 195 | 189 | 186 | 141
GCGCGUCAUGUCAGCGGUGACACUGUCGAUACCAGUGCCGCAAGGCGCCCUUGGCAGCGACGUGCUGGAGUGAUGUUCCAGCGUU [#2 Exclusion - Theophylline A Attempt #29 (HarryS)] | 156 | 122 | 161 | 152 | 124
GCGCGUCAUGUCAGCGGUGACUACGUCGAUACCAGCAGGGAAACCUGCCCUUGGCAGCGACGCGCUGGAGUGAUGUUCCGACGGC [#2 Exclusion - Theophylline A Attempt #7 (HarryS)] | 184 | 176 | 180 | 318 | 159
GCGCGUCAUGUCAGCGGUGACUAUGUCGAUACCAGCGCCGCAAGGCGCCCUUGGCAGCGACGCGCUGGAGUGAUGUUCCGACGGC [#2 Exclusion - Theophylline A Attempt #9 (HarryS)] | 144 | 153 | 148 | 159 | 129
GCGGCCCAGCCGGAUACCAGUGAGCCGCUGGGAACCGCGGGCCCAGAGUGAUGUUCGGGACACCCUUGGCAGCCGCCUGGGUCGC [#2 Same State - Theophylline B Attempt #20 (HarryS)] | 486 | 293 | 643 | 301 | 491
GCGGGCCAGACGGCCGCCACUCCGGGCAGUGAUGUUGCGAAACUUCUACUAGAGUGAUGUUCUACGAGGACCGGGUCGGAACGCG [Exclusion Tryptophan B Gf 13] | 789 | 703 | 951 | 1000 | 578
GCGUAGGAAGAAGGAUAUCACAGGAUGCCACGUUAGUGAUGUUAAUUUGGUUCAGCGCGAUUCUGAUGAGAAGGUCUUUUAUGAU [theeternabot_sameState_KL_FMN_B_47] | 220 | 300 | 295 | 205 | 210
GCGUCACGUCGGGAUACCAGAGAAAUGGCAUUAGCCAAUGACGAGUGAUGUUCGUAGGCGCUCCCUUGGCAGCCCACCGGGAGGA [theeternabot_sameState_KL_Theo_B_21] | 351 | 218 | 311 | 340 | 278
GGACAACUAUGUCCCAUACAAACAAGAGAUACCAGCCAUCAUAGAGGCCCUUGGCAGCUCAUAUAAUCCAGUGAUGUUGGAUUUC [Atgebeus] | 165 | 215 | 179 | 149 | 148
GGACCUCAGUGAUGUUGAGGUAACGCUGAUACCAGUGACUUAAUUCGCCCUUGGCAGCAGUCCACCGAGGUAUCUGAUUAGGUCU [Default title] | 133 | 145 | 149 | 155 | 139
GGAGGAGAAUAUGAUACCAGCAGAGAGAGAUACGAAGUAUAGUGAUGUUAUAUGAGAGAAUGCCCUUGGCAGCAUAAGACGCAGG [#08 K4 Theophylline B Same State] | 86 | 83.3 | 116 | 95 | 84.8
GGAGUCCCGUUAGAUUGUGUAGAUACAAGACGAGGACCGGUACGGCCGCCACUCGCCAUCGUCCAGUGAUGUUGGGCGUCACGGG [theeternabot_sameState_KL_Trp_A_30] | 262 | 179 | 235 | 227 | 219
GGAGUUACCUGGGAUACCAGUCGGAGUCCCAGAGCACAGAGUGAUGUUCUGGGAUGUUUCGGCCCUUGGCAGCUCUGGGACUCCC [#2 Exclusion - Theophylline B Attempt #13 (HarryS)] | 482 | 254 | 142 | 402 | 222
GGAUAGGAAAGAGGAUAUGGGCUAGGCAAGAAUAACUUGUCUAGCAAAUCCAUGAGGAGUGAUGUUCCAGAAGGCUUUCCUAUCG [FmnBX 1 A9+U77] | 995 | 141 | 160 | 157 | 126
GGAUAGGACAGAGGAUAUCCUUGAGGCAAGAAACUUGUCUCUAAAAGGAUGAACCUAGUGAUGUUAGGAGAAGGCUGUCCUAUCG [FmnBX 13 - #SwitchBubble #StaticStem #Palindromic] | 132 | 90 | 98.2 | 85 | 95.9
GGAUAGGACAGAGGAUAUCCUUGAGGCAAGAAACUUGUCUCUAAAGGAUGAAUCCUAGUGAUGUUAGGAGAAGGCUGUCCUAUCG [FmnBX 14 - #SwitchBubble #StaticStem #Palindromic] | 103 | 82.2 | 85 | 77.2 | 87.1
GGAUAGGACAGAGGAUAUGGACAGUCUACAAAGUAGGCUGAAAAUCCUUGAAUGGAAGUGAUGUUUCUAGAAGGCUGUCCUAUCG [FmnBX 19 - #SwitchBubble #StaticStem #Palindromic] | 800 | 160 | 190 | 174 | 180
GGAUAGGACAGAGGAUAUGGUAGUGAUGUUACCAAACUGGUUACUUUUGUCAGAAAACUGGCAUUUCCAGAAGGCUGUCCUAUCG [KL-XFMN-B12] | 287 | 71 | 68.6 | 58 | 68.3

Sequence | apparent KD of K4 kissing-loop reporter (input ligand: FMN 200 uM) [nM] | apparent KD of K4 kissing-loop reporter (input ligand: arginine 13.2 mM) [nM] | apparent KD of K4 kissing-loop reporter (input ligand: none) [nM] | apparent KD of K4 kissing-loop reporter [1] [nM] | apparent KD of K4 kissing-loop reporter [2] [nM]
GGAUAGGACAUAGGAUAUGGGCUAGGCAAGAAUAACUUGUCUAGCAAAUCCAUGAGGAGUGAUGUUCCAGAAGGAUGUCCUAUCG [FmnBX 1 U11+A75] | 566 | 108 | 112 | 123 | 84.5
GGAUAGGACGGAGGAUAUGGUAGUGAUGUUACCAAACUGGUUAAACAUGUCAGAAAACUGGCAUGACCAGAAGGCCGUCCUAUCG [FmnBX 27 G10+C76] | 108 | 62.6 | 69.6 | 61.6 | 67.4
GGAUAGGAUAGAGGAUAUGGUUUAGGCAAGAAUAACUUGUCAUGUAAAUCCAUGAGGAGUGAUGUUCCAGAAGGCUGUCCUAUCG [MatMod 8 - Jieux - Exclusion - FMN B] | 576 | 123 | 121 | 142 | 91.8
GGAUAGGAUAGAGGAUAUGGUUUAUGCAGGAAUAACUUAUCGUGUAAAUCCAUAGGGAGUGAUGUUCCAGAAGGCUGUCCUAUCG [MatMod 13 - Jieux - Exclusion - FMN B] | 408 | 202 | 228 | 250 | 170
GGAUCCACCAGUGAUGUUGGAGAAAACUCCAAGGAUAUGACGAAAGUCAGAAGGUGGUAGACUGGACAAAGUCCGGUGGGAUCCA [FmnA10 G78] | 661 | 141 | 392 | 438 | 88.7
GGAUGGUAGGCGGCCGCCACUAAAACAGAACACAUACAAGCCAGUGAUGUUGGUAUGAUGGUGUAUAGGACCGGGCCUAGAUAGA [Exclusion - Tryptophan B (Freestyle 5)] | 197 | 178 | 199 | 186 | 196
GGAUGGUAGGCGGCCGCCACUAAAACUGAACACAUACAAGCCAGUGAUGUUGGUAUGAUGAAGUAUAGGACCGGGCCUAGAUAGA [Exclusion - Tryptophan B (Freestyle 3)] | 446 | 384 | 422 | 502 | 469
GGAUUUGAAAGUGAGUGAUGUUCAUGUUGUGAGGAUAUGUAGAGAUAUAGAAGGCACGUUUGUAUUUUUUUUGUGUGAGAUUAAA [Last Minute #1] | 81.5 | 64.9 | 65.1 | 75.2 | 65.5
GGCACGGUGGCGCGACUGCCGUGCGCUUGGGAGGAUAUGUUUCGUGACAGAAGGCCCAGUGAUGUUGGGUCUGUUCAAAAGGACU [Gegearer] | 359 | 125 | 127 | 130 | 112
GGCAUAUGGGCAGGAUAUAGGCAGGUAGAGUGAUGUUCUUUCUGAAUAAUUCCAUCCUUCUACCUACUAGAAGGGCCCAUAUGCC | 56.5 | 106 | 68.7 | 110 | 67.9
GGCAUCCAUGGACAUAGUGAUGUUAUGUACCGAGGACCGGUACGGCCGCCACUCGGCCAUGGAUGCCGCAAUCGGAAACGAUUGC | 868 | 558 | 885 | 667 | 290
GGCCCGGGCUCGGCCGCCACUCCCUCGUACCGCAAGGUAUGAUACCGAGUGAUGUUCGGUUGGAGGAGGACCGGGAGCCCGGGCC [#2 Exclusion - Tryptophan B Attempt #6 (HarryS)] | 116 | 118 | 106 | 101 | 102
GGCGGCCGCGCGCAAGCGCGGCCGGCCGAUACCAGCGCGACGGCGCGCCCUUGGCAGCGGCGCCGAGUGAUGUUCGGCCUGCCGG [#2 Same State - Theophylline A Attempt #16 (HarryS)] | 376 | 447 | 585 | 454 | 482
GGCUUACUAGUGAUGUUAGUAUUUUCUGAAGGAGCGCGUGAAAACGCAGGUAGGUCGCAGAACCUUGCCAACUAUUUUAGUUGCC [Ex Arginine A K4 28] | 144 | 157 | 115 | 136 | 104
GGGAAGGGACACAAGGAGGAACGAAGGGAAGGAGCGCCGGAGGAGGCAGGUAGGUCGCCCAACCAGUGAUGUUGGAAUUUAAUCC [Default title] | 242 | 125 | 287 | 114 | 196
GGGAGGAGUGGUGUUGAUUAGGGAGCGGAAGGAGCGCCGAGGAAGGCAGGUAGGUCGCCGGAUUAUAGUGAUGUUAUGAAGAGGG [ExArg.J] | 663 | 716 | 679 | 1010 | 577
GGGAGUAUUGCGGCCGCCACUGAGGAAGAAGAAGGCCAUAGUGAUGUUAUGGAGGAAAGGAAGAACAGGACCGGGCAGUAGAUUU [#22 K4 Tryptophan B Same State] | 154 | 157 | 175 | 188 | 127
GGGAGUGAUGUUCCCGCGUUGACGGUCCUCCGAGGACCGGUACGGCCGCCACUCGAAACCCAGUGAUGUUGGGACUCACCGUACU [Exclusion Tryptophan A GF 11] | 511 | 504 | 511 | 620 | 435
GGGAUAGGAUCAGUGAUGUUGGUCCCAGAUACCAGACAAAGUCACGUCCCUUGGCAGCUGAUGAUCGCUGACGACCGGCCUCCAA [theeternabot_sameState_KL_Theo_A_7] | 259 | 218 | 262 | 219 | 256
GGGAUGAUGUCGGCCGCCACUGACUGUGUCCAGUGAUGUUGGGAGUGUACGGAAGUUCCAUAUAUCAGGACCGGGACCUCGCUCC [theeternabot_sameState_KL_Trp_B_44] | 866 | 487 | 938 | 817 | 616
